In patent US20160153985A1:

Tests used:
[1] = molecular target: pure human iC3b (Complement Technology, A115) (human) (UniProt P01024); test: sandwich ELISA, capture A209 (Example 5), goat anti-C3-HRP; TABLE 6 well A3, blocker
[2] = molecular target: pure human iC3b (Complement Technology, A115) (human) (UniProt P01024); test: sandwich ELISA, capture A209 (Example 5), goat anti-C3-HRP; TABLE 6 well A7, blocker
[3] = molecular target: pure human iC3b (Complement Technology, A115) (human) (UniProt P01024); test: sandwich ELISA, capture A209 (Example 5), goat anti-C3-HRP; TABLE 6 well B5, blocker
[4] = molecular target: pure human iC3b (Complement Technology, A115) (human) (UniProt P01024); test: sandwich ELISA, capture A209 (Example 5), goat anti-C3-HRP; TABLE 6 well B7, blocker
[5] = molecular target: pure human iC3b (Complement Technology, A115) (human) (UniProt P01024); test: sandwich ELISA, capture A209 (Example 5), goat anti-C3-HRP; TABLE 6 well C4, 30% vitreous
[6] = molecular target: pure human iC3b (Complement Technology, A115) (human) (UniProt P01024); test: sandwich ELISA, capture A209 (Example 5), goat anti-C3-HRP; TABLE 6 well C6, 30% vitreous
[7] = molecular target: pure human iC3b (Complement Technology, A115) (human) (UniProt P01024); test: sandwich ELISA, capture A209 (Example 5), goat anti-C3-HRP; TABLE 6 well C8, 30% vitreous
[8] = molecular target: pure human iC3b (Complement Technology, A115) (human) (UniProt P01024); test: sandwich ELISA, capture A209 (Example 5), goat anti-C3-HRP; TABLE 6 well C9, 30% vitreous
[9] = molecular target: pure human iC3b (Complement Technology, A115) (human) (UniProt P01024); test: sandwich ELISA, capture A209 (Example 5), goat anti-C3-HRP; TABLE 6 well D3, 30% vitreous
[10] = molecular target: pure human iC3b (Complement Technology, A115) (human) (UniProt P01024); test: sandwich ELISA, capture A209 (Example 5), goat anti-C3-HRP; TABLE 6 well D7, 30% vitreous
[11] = molecular target: pure human iC3b (Complement Technology, A115) (human) (UniProt P01024); test: sandwich ELISA, capture A209 (Example 5), goat anti-C3-HRP; TABLE 6 well E2, 20% vitreous
[12] = molecular target: pure human iC3b (Complement Technology, A115) (human) (UniProt P01024); test: sandwich ELISA, capture A209 (Example 5), goat anti-C3-HRP; TABLE 6 well E8, 20% vitreous
[13] = molecular target: pure human iC3b (Complement Technology, A115) (human) (UniProt P01024); test: sandwich ELISA, capture A209 (Example 5), goat anti-C3-HRP; TABLE 6 well G3, 10% vitreous
[14] = molecular target: pure human iC3b (Complement Technology, A115) (human) (UniProt P01024); test: sandwich ELISA, capture A209 (Example 5), goat anti-C3-HRP; TABLE 6 well G9, 10% vitreous
[15] = molecular target: pure human iC3b (Complement Technology, A115) (human) (UniProt P01024); test: sandwich ELISA, capture A209 (Example 5), goat anti-C3-HRP; TABLE 6 well H3, 10% vitreous
[16] = molecular target: pure human iC3b (Complement Technology, A115) (human) (UniProt P01024); test: sandwich ELISA, capture A209 (Example 5), goat anti-C3-HRP; TABLE 6 well H8, 10% vitreous
[17] = molecular target: pure human iC3b (Complement Technology, A115) (human) (UniProt P01024); test: sandwich ELISA, capture A209 (Example 5), goat anti-C3-HRP; TABLE 6 well H9, 10% vitreous
[18] = molecular target: pure human iC3b (Complement Technology, A115) (human) (UniProt P01024); test: sandwich ELISA, capture A209 (Example 5), goat anti-C3-HRP; TABLE 7, iC3b in 20% vitreous
[19] = molecular target: pure human iC3b (Complement Technology, A115) (human) (UniProt P01024); test: sandwich ELISA of Example 5, iC3b concentration labeled 0.0125 in 20% human vitreous, mean of duplicates less background

UniProt P01024, sequence (P01024 23-667 limits assumed, chain 1 of 3): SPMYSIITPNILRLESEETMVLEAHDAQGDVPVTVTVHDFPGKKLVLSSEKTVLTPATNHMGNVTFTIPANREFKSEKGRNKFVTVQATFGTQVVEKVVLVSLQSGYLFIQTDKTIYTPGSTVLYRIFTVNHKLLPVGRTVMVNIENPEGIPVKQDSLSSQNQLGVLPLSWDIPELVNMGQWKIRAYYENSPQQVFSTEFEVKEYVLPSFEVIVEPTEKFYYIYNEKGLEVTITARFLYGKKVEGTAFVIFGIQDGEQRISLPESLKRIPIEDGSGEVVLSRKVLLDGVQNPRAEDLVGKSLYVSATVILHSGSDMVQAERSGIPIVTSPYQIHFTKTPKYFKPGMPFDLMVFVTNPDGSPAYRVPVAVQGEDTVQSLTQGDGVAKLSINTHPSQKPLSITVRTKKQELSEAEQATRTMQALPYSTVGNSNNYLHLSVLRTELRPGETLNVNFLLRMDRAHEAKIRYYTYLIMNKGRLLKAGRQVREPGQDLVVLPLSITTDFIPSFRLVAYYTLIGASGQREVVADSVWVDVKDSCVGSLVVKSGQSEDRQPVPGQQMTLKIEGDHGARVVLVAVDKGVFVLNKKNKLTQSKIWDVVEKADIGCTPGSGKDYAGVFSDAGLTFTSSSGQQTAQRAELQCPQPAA
UniProt P01024, sequence (P01024 749-1303 limits assumed, chain 2 of 3): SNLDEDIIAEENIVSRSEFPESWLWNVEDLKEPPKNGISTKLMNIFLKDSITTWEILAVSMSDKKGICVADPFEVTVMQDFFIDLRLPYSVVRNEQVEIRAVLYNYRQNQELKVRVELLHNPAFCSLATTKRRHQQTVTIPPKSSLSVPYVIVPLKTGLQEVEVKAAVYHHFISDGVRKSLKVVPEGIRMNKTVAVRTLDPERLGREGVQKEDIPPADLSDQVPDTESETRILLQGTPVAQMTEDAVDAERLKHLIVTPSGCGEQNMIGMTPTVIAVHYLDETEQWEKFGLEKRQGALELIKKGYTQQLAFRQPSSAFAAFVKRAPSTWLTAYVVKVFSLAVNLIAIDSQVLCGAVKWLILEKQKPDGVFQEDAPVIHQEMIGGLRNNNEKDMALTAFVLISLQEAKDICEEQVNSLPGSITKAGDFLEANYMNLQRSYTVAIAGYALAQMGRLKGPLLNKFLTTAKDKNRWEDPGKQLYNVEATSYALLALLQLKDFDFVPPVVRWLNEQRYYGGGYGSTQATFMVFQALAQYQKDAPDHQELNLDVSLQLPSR
UniProt P01024, sequence (P01024 1321-1663 limits assumed, chain 3 of 3): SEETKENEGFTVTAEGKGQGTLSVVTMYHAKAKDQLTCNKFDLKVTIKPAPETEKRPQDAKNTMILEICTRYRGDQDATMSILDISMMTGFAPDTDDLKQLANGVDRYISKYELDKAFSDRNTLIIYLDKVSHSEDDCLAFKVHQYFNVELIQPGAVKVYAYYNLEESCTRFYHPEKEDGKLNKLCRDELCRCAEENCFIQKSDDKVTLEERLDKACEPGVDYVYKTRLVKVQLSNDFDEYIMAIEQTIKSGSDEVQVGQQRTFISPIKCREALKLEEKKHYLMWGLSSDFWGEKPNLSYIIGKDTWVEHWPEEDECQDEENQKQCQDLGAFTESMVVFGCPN

**Q.** With mouse anti-iC3b antibody A209 (Quidel) as the substance, how does the raw A450 at iC3b 0.5 ug/ml [1] read?
**A.** The raw A450 at iC3b 0.5 ug/ml was 0.258 OD.

**Q.** What about the raw A450 at iC3b 0.031 ug/ml [2] of the same substance?
**A.** Its raw A450 at iC3b 0.031 ug/ml is 0.053 OD.

**Q.** What about the raw A450 at iC3b 0.125 ug/ml [3] of the same substance?
**A.** Its raw A450 at iC3b 0.125 ug/ml is 0.1 OD.

**Q.** What about the raw A450 at iC3b 0.031 ug/ml [4] of the same substance?
**A.** Its raw A450 at iC3b 0.031 ug/ml is 0.048 OD.

**Q.** What about the raw A450 at iC3b 0.25 ug/ml [5] of the same substance?
**A.** Its raw A450 at iC3b 0.25 ug/ml is 0.391 OD.

**Q.** And the raw A450 at iC3b 0.063 ug/ml [6]?
**A.** The raw A450 at iC3b 0.063 ug/ml was 0.375 OD.

**Q.** And the raw A450 at iC3b 0.016 ug/ml [7]?
**A.** Its raw A450 at iC3b 0.016 ug/ml is 0.336 OD.

**Q.** And the raw A450 at iC3b 0.0078 ug/ml [8]?
**A.** Its raw A450 at iC3b 0.0078 ug/ml is 0.368 OD.

**Q.** What about the raw A450 at iC3b 0.5 ug/ml [9] of the same substance?
**A.** Its raw A450 at iC3b 0.5 ug/ml is 0.406 OD.

**Q.** And the raw A450 at iC3b 0.031 ug/ml [10]?
**A.** The raw A450 at iC3b 0.031 ug/ml was 0.356 OD.

**Q.** And the raw A450 at iC3b 1 ug/ml [11]?
**A.** Its raw A450 at iC3b 1 ug/ml is 0.485 OD.

**Q.** What about the raw A450 at iC3b 0.016 ug/ml [12] of the same substance?
**A.** Its raw A450 at iC3b 0.016 ug/ml is 0.321 OD.

**Q.** And the raw A450 at iC3b 0.5 ug/ml [13]?
**A.** The raw A450 at iC3b 0.5 ug/ml was 0.385 OD.

**Q.** What about the raw A450 at iC3b 0.0078 ug/ml [14] of the same substance?
**A.** The raw A450 at iC3b 0.0078 ug/ml was 0.229 OD.

**Q.** And the raw A450 at iC3b 0.5 ug/ml [15]?
**A.** The raw A450 at iC3b 0.5 ug/ml was 0.316 OD.

**Q.** What about the raw A450 at iC3b 0.016 ug/ml [16] of the same substance?
**A.** The raw A450 at iC3b 0.016 ug/ml was 0.237 OD.

**Q.** What about the raw A450 at iC3b 0.0078 ug/ml [17] of the same substance?
**A.** The raw A450 at iC3b 0.0078 ug/ml was 0.207 OD.

**Q.** And the A450 minus matrix average at iC3b 0.0078 ug/ml [18]?
**A.** Its A450 minus matrix average at iC3b 0.0078 ug/ml is -0.002 OD.

**Q.** What about the A450 minus matrix average at iC3b 0.016 ug/ml [18] of the same substance?
**A.** Its A450 minus matrix average at iC3b 0.016 ug/ml is 0 OD.

**Q.** What about the A450 minus matrix average at iC3b 0.031 ug/ml [18] of the same substance?
**A.** The A450 minus matrix average at iC3b 0.031 ug/ml was 0.012 OD.

**Q.** And the A450 minus matrix average at iC3b 0.063 ug/ml [18]?
**A.** Its A450 minus matrix average at iC3b 0.063 ug/ml is 0.03 OD.

**Q.** What about the A450 minus matrix average at iC3b 0.25 ug/ml [18] of the same substance?
**A.** The A450 minus matrix average at iC3b 0.25 ug/ml was 0.099 OD.

**Q.** And the A450 minus matrix average at iC3b 0.5 ug/ml [18]?
**A.** The A450 minus matrix average at iC3b 0.5 ug/ml was 0.122 OD.

**Q.** And the A450 minus matrix average at iC3b 1 ug/ml [18]?
**A.** Its A450 minus matrix average at iC3b 1 ug/ml is 0.182 OD.

**Q.** What about the net absorbance A450 (matrix only value 0.328 subtracted) [19] of the same substance?
**A.** The net absorbance A450 (matrix only value 0.328 subtracted) was 0.049 A450.
